From PMC4396693, “Structural Basis of Latrophilin-FLRT Interaction” (Structure(London, England:1993), 2015)

B1: murine LPHN3^Lec-Olf, wild type, biotinylated at a C-terminal Avi-Tag [modified: biotin on the C-terminal Avi-Tag (enzymatic); biotin on the C-terminal Avi-Tag (enzymatic)] [murine] / murine FLRT2 full ectodomain, wild … (parent)
chain 1: PIPMAVVRRELSCESYPIELRCPGTDVIMIESANYGRTDDKICDSDPAQMENIRCYLPDAYKIMSQRCNNRTQCAVVAGPDVFPDPCPGTYKYLEVQYECVPYKVEQKVFLCPGLLKGVYQSEHLFESDHQSGAWCKDPLQASDKIYYMPWTPYRTDTLTEYSSKDDFIAGRPTTTYKLPHRVDGTGFVVYDGALFFNKERTRNIVKFDLRTRIKSGEAIIANANYHDTSPYRWGGKSDIDLAVDENGLWVIYATEQNNGKIVISQLNPYTLRIEGTWDTAYDKRSASNAFMICGILYVVKSVYEDDDNEATGNKIDYIYNTDQSKDSLVDVPFPNSYQYIAAVDYNPRDNLLYVWNNYHVVKYSLDFGPLD
chain 2: ACPSVCRCDRNFVYCNERSLTSVPLGIPEGVTVLYLHNNQINNAGFPAELHNVQSVHTVYLYGNQLDEFPMNLPKNVRVLHLQENNIQTISRAALAQLLKLEELHLDDNSISTVGVEDGAFREAISLKLLFLSKNHLSSVPVGLPVDLQELRVDENRIAVISDMAFQNLTSLERLIVDGNLLTNKGIAEGTFSHLTKLKEFSIVRNSLSHPPPDLPGTHLIRLYLQDNQINHIPLTAFANLRKLERLDISNNQLRMLTQGVFDHLSNLKQLTARNNPWFCDCSIKWVTEWLKYIPSSLNVRGFMCQGPEQVRGMAVRELNMNLLSCPTTTPGLPVFTPAPSTVSPTTQSPTLSVPSPSRGSVPPAPTPSKLPTIPDWDGRERVTPPISERIQLSIHFVNDTSIQVSWLSLFTVMAYKLTWVKMGHSLVGGIVQERIVSGEKQHLSLVNLEPRSTYRICLVPLDAFNYRTVEDTICSEATTHASYLNNGSNTASSHEQTTSHSMGSP

Variants of: B1
Experiment: SPR
Conditions: with murine FLRT2 full ectodomain; for Kd: biotinylated LPHN3 Lec-Olf immobilized on streptavidin-coated Biacore chips, FLRT2 ectodomain injected as analyte, 1:1 binding model, parent: 18 nM; for response: maximum response at the highest FLRT2 ectodomain concentration plotted (about 2.3 µM), parent: 450, read off a plot

| Variant | Kd | response |
| --- | --- | --- |
| chain 1 PIPMAVVRRELSCESYPIELRCPGTDVIMIESANYGRTDDKICDSDPAQMENIRCYLPDAYKIMSQRCNNRTQCAVVAGPDVFPDPCPGTYKYLEVQYECVPYKVEQKVFLCPGLLKGVYQSEHLFESDHQSGAWCKDPLQASDKIYYMPWTPYRTDTLTEYSSKDDFIAGRPTTNYTLPHRVDGTGFVVYDGALFFNKERTRNIVKFDLRTRIKSGEAIIANANYHDTSPYRWGGKSDIDLAVDENGLWVIYATEQNNGKIVISQLNPYTLRIEGTWDTAYDKRSASNAFMICGILYVVKSVYEDDDNEATGNKIDYIYNTDQSKDSLVDVPFPNSYQYIAAVDYNPRDNLLYVWNNYHVVKYSLDFGPLD [chain 1 T176N K178T] | 460 nM | 400 RU |
| chain 1 PIPMAVVRRELSCESYPIELRCPGTDVIMIESANYGRTDDKICDSDPAQMENIRCYLPDAYKIMSQRCNNRTQCAVVAGPDVFPDPCPGTYKYLEVQYECVPYKVEQKVFLCPGLLKGVYQSEHLFESDHQSGAWCKDPLQASDKIYYMPWTNYTTDTLTEYSSKDDFIAGRPTTTYKLPHRVDGTGFVVYDGALFFNKERTRNIVKFDLRTRIKSGEAIIANANYHDTSPYRWGGKSDIDLAVDENGLWVIYATEQNNGKIVISQLNPYTLRIEGTWDTAYDKRSASNAFMICGILYVVKSVYEDDDNEATGNKIDYIYNTDQSKDSLVDVPFPNSYQYIAAVDYNPRDNLLYVWNNYHVVKYSLDFGPLD [chain 1 P153N R155T] | 980 nM | 460 RU |
